US11219695

Columns and labels:
[1] = system: ZFN SBS 47898 (also printed as SB 47931 in the transduction method) (synthetic construct); assay: cell_activity; conditions: ZFN pair with P1; HepG2/C3A, 300K/600K vg/cell, donor A; partner named 47898 or 47931 in text; half-site not stated
[2] = system: ZFN SBS 47171 (left/right albumin ZFN, FokI fusion) (synthetic construct); assay: cell_activity; conditions: ZFN pair with P2; HepG2/C3A, 300K/600K vg/cell, donor A; 39.81% with donor B; half-site not stated

## GCACTAAGGAAAGTGCAAAGTAACTTAGAGTGACTGAAACTTCACAGAATAGGGTTGAAGATTGAATTCATAACTATCCCAAAGACCTATCCATTGCACTATGCTTTATTTAAAAACCACAAAACCTGTGCTGTTGATCTCATAAATAGAACTTGTATTTATATTTATTTTCATTTTAGTCTGTCTTCTTGGTTGCTGTTGATAGACACTAAAAGAGTATTA (double strand)
[1]
  activity: 43.5 % indels
[2]
  activity: 43.5 % indels
